In patent US20140004106A1:

Experiments:
[1] = molecular target: 28mer peptide of the CXCR5 antigen; assay: Antigen-ELISA; Succinate 10 mM pH 5.00, T0
[2] = molecular target: 28mer peptide of the CXCR5 antigen; assay: Antigen-ELISA; Citrate 10 mM pH 6.50, after 1 week at +40°C
[3] = molecular target: 28mer peptide of the CXCR5 antigen; assay: Antigen-ELISA; Histidine 10 mM pH 6.5, T0
[4] = molecular target: 28mer peptide of the CXCR5 antigen; assay: Potency (Antigen ELISA); stored -20°C, 6 months
[5] = molecular target: 28mer peptide of the CXCR5 antigen; assay: Antigen-ELISA; Citrate 10 mM pH 5.00, after mechanical stress 350 rpm 2.5 h
[6] = molecular target: 28mer peptide of the CXCR5 antigen; assay: Ag-ELISA; DS in PBS, 5°C, 3 months
[7] = molecular target: 28mer peptide of the CXCR5 antigen; assay: Antigen-ELISA; standard, repeated values in the 3 weeks -20°C
[8] = molecular target: 28mer peptide of the CXCR5 antigen; assay: Potency (Antigen ELISA); stored -20°C, 1 month
[9] = molecular target: 28mer peptide of the CXCR5 antigen; assay: Antigen-ELISA; standard run with LA_09_004_2
[10] = molecular target: 28mer peptide of the CXCR5 antigen; assay: Antigen-ELISA; PBS 155 mM, 1 h purged with air, 24 h
[11] = molecular target: 28mer peptide of the CXCR5 antigen; assay: Antigen-ELISA; Acetate 10 mM pH 5.50, T0
[12] = molecular target: 28mer peptide of the CXCR5 antigen; assay: ELISA potency (binding); 100 mg/mL, Lysine (30) + Mannitol (15), T zero
[13] = molecular target: 28mer peptide of the CXCR5 antigen; assay: Antigen-ELISA; citrate 10 mM prototype B, T0
[14] = molecular target: 28mer peptide of the CXCR5 antigen; assay: Antigen-ELISA; histidine 10 mM prototype B, T0
[15] = molecular target: 28mer peptide of the CXCR5 antigen; assay: ELISA potency (binding); 100 mg/mL, Trehalose (60) + Mannitol (15), T zero
[16] = molecular target: 28mer peptide of the CXCR5 antigen; assay: ELISA potency (binding); 100 mg/mL, Trehalose (60) + NaCl (2), T zero
[17] = molecular target: 28mer peptide of the CXCR5 antigen; assay: Antigen-ELISA; citrate 10 mM prototype C, T0
[18] = molecular target: 28mer peptide of the CXCR5 antigen; assay: Antigen-ELISA; acetate 10 mM prototype B, repeated values in the 3 weeks -20°C
[19] = molecular target: 28mer peptide of the CXCR5 antigen; assay: Antigen-ELISA; standard run with LA 09_004_9
[20] = molecular target: 28mer peptide of the CXCR5 antigen; assay: Antigen-ELISA; PBS 155 mM pH 7.00, T0
[21] = molecular target: 28mer peptide of the CXCR5 antigen; assay: Antigen-ELISA; standard run with LA_09_29B, T0
[22] = molecular target: 28mer peptide of the CXCR5 antigen; assay: Antigen-ELISA; TRIS 10 mM pH 7.5, after 1 week at +40°C
[23] = molecular target: 28mer peptide of the CXCR5 antigen; assay: Potency (Antigen ELISA); stored +5°C, 6 months
[24] = molecular target: 28mer peptide of the CXCR5 antigen; assay: Antigen-ELISA; Citrate 10 mM pH 6.00, T0
[25] = molecular target: 28mer peptide of the CXCR5 antigen; assay: Potency (Antigen ELISA); stored -20°C, 3 months
[26] = molecular target: 28mer peptide of the CXCR5 antigen; assay: Antigen-ELISA; PBS 155 mM, polyethylene low density, 24 h +40°C
[27] = molecular target: 28mer peptide of the CXCR5 antigen; assay: Antigen-ELISA; citrate 10 mM prototype A, T0
[28] = molecular target: 28mer peptide of the CXCR5 antigen; assay: Antigen-ELISA; standard run with LA_09_004_7

B1: Lead CXCR5 Antibody (humanized IgG4 anti-CXCR5 antibody) (antibody, V domains shown)
VH: QVQLKESGPGLVAPSESLSITCTVSGFSLIDYGVNWIRQPPGKGLEWLGVIWGDGTTYYNPSLKSRLSISKDNSKSQVFLKVTSLTTDDTAMYYCARIVYWGQGTLVTVSA
VL: DIVMTQAAPSVAVTPGASVSISCRSSKSLLHSSGKTYLYWFLQRPGQSPQLLIYRLSSLASGVPDRFSGSGSGTAFTLRISRVEAEDVGVYYCMQHLEYPYTFGGGTKLEIKR
EC50 % [1]: 124% | EC50 % [2]: 46% | EC50 % [3]: 110% | EC50 value (in comparison to reference) [4]: 96% | EC50 % [5]: 99% | EC50 % [6]: 112% | EC50 % [7]: 100% | EC50 value (in comparison to reference) [8]: 107% | EC50 % [9]: 100% | EC50 % [10]: 84.3% | EC50 % [11]: 180% | rel. potency [%] [12]: 88% | EC50 % [13]: 104% | EC50 % [14]: 118% | rel. potency [%] [15]: 156% | rel. potency [%] [16]: 110% | EC50 % [17]: 104% | EC50 % [18]: 112% | EC50 % [19]: 100% | EC50 % [20]: 74% | EC50 % [21]: 100% | EC50 % [22]: 184% | EC50 value (in comparison to reference) [23]: 97% | EC50 % [24]: 52% | EC50 value (in comparison to reference) [25]: 84% | EC50 % [26]: 104% | EC50 % [27]: 112% | EC50 % [28]: 100%
